Measurements: patent US20220241406A1

Target: IgE antibodies of four Pru p 7 reactive human sera
Test: ImmunoCAP IgE inhibition, inhibitor at 20 ug/mL in solution, rPru p 7 on solid phase, against dilution buffer control

B1: recombinant Cup s GRPb (protein)
chain: AQIDCDKECNRRCSKASLHDRCLKYCGICCEKCHCVPPGTAGNEDVCPCYAHLKNSKGGHKCP
In the case of B1, the percent inhibition of IgE binding to rPru p 7 (fourth serum) is reported as 80%.
